The source of these data is article PMC12416549 (2024).

T1: TNFR1 (Homo sapiens, UniProt P19438)
T1 chain: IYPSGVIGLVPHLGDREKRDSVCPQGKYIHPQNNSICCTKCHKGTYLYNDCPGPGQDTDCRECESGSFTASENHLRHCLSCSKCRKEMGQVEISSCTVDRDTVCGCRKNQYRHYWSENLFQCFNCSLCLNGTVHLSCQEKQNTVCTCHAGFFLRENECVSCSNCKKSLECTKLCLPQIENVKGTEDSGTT

B1: E81P (designed binder)
chain: MTLQELLREEALRRAEAEAFRYALELLAEKFPEQKEYLLDLAEEIESQIRSLSGVDVEDVRKFLDKEWAWVKELLAEHPAPLAEVEAARAARLAELRAEVEAKVAA
B2: F31V (designed binder)
chain: B1 chain with F31V, P81E
B3: S53N (designed binder)
chain: B1 chain with S53N, P81E
B4: Q34R (designed binder)
chain: B1 chain with Q34R, P81E
B5: E58Q (designed binder)
chain: B1 chain with E58Q, P81E
B6: R13P (designed binder)
chain: B1 chain with R13P, P81E
B7: E46K (designed binder)
chain: B1 chain with E46K, P81E
B8: D65G (designed binder)
chain: B1 chain with D65G, P81E
B9: V85C (designed binder)
chain: B1 chain with P81E, V85C
B10: E73R (designed binder)
chain: B1 chain with E73R, P81E
B11: T2I (designed binder)
chain: B1 chain with T2I, P81E
B12: A19Y (designed binder)
chain: B1 chain with A19Y, P81E
B13: A106K (designed binder)
chain: B1 chain with P81E, A106K
B14: T2C (designed binder)
chain: B1 chain with T2C, P81E
B15: R21G (designed binder)
chain: B1 chain with R21G, P81E
B16: L26E (designed binder)
chain: B1 chain with L26E, P81E
B17: Y37L (designed binder)
chain: B1 chain with Y37L, P81E
B18: E9Q (designed binder)
chain: B1 chain with E9Q, P81E
B19: K30P (designed binder)
chain: B1 chain with K30P, P81E
B20: A19S (designed binder)
chain: B1 chain with A19S, P81E
B21: S47Y (designed binder)
chain: B1 chain with S47Y, P81E
B22: W68T (designed binder)
chain: B1 chain with W68T, P81E
B23: L12K (designed binder)
chain: B1 chain with L12K, P81E
B24: Y22T (designed binder)
chain: B1 chain with Y22T, P81E
B25: E33V (designed binder)
chain: B1 chain with E33V, P81E
B26: A11N (designed binder)
chain: B1 chain with A11N, P81E
B27: E101A (designed binder)
chain: B1 chain with P81E, E101A
B28: Q34C (designed binder)
chain: B1 chain with Q34C, P81E
B29: R21H (designed binder)
chain: B1 chain with R21H, P81E
B30: T2H (designed binder)
chain: B1 chain with T2H, P81E
B31: A42R (designed binder)
chain: B1 chain with A42R, P81E
B32: W68M (designed binder)
chain: B1 chain with W68M, P81E
B33: D59P (designed binder)
chain: B1 chain with D59P, P81E
B34: Q48F (designed binder)
chain: B1 chain with Q48F, P81E
B35: E9Y (designed binder)
chain: B1 chain with E9Y, P81E
B36: P32Y (designed binder)
chain: B1 chain with P32Y, P81E
B37: E44W (designed binder)
chain: B1 chain with E44W, P81E
B38: V57R (designed binder)
chain: B1 chain with V57R, P81E
B39: Q48P (designed binder)
chain: B1 chain with Q48P, P81E
B40: V85H (designed binder)
chain: B1 chain with P81E, V85H

Numbering of substitutions follows the chain as printed. In names and notes the source's numbering stands.

For the test, the target named is T1, TNFR1. Briefly: yeast display SC50.
As for B1, the “apparent Kd (screen)” value was 0.718 nM. Under B2 stands 0.653 nM; under B3, 0.653 nM. For B4 the value was 0.718 nM; for B5, 0.653 nM. For B6 the value was 11.4 nM; for B7, 0.593 nM. Take B8: the “apparent Kd (screen)” value was determined as 0.593 nM. For B9 the value was 0.446 nM; for B10, 0.539 nM; for B11, 0.653 nM. For B12 the value was 10.4 nM; for B13, 1.05 nM.

Consider B14, for which the “apparent Kd (screen)” value is 2.73 nM. On to B15, for which the “apparent Kd (screen)” value was 0.869 nM.

For B16, the “apparent Kd (screen)” value was 0.79 nM.

As for B17, the “apparent Kd (screen)” value amounted to 7.78 nM. In the case of B18, the “apparent Kd (screen)” value amounted to 0.49 nM. Under B19 stands 0.653 nM; under B20, 0.653 nM; under B21, 0.49 nM. For B22 the value was 1.54 nM; for B23, 0.539 nM. As for B24, the “apparent Kd (screen)” value amounted to 0.49 nM.

B25: the “apparent Kd (screen)” value was 0.718 nM. Under B26 stands 0.405 nM; under B27, 0.79 nM. On to B28, for which the “apparent Kd (screen)” value came out at 1.05 nM. For B29 the value was 0.49 nM; for B30, 0.869 nM; for B31, 2.25 nM. For B32 the value was 0.539 nM; for B33, 0.252 nM; for B34, 13.8 nM.

B35: the “apparent Kd (screen)” value came to 1.05 nM. For B36, the “apparent Kd (screen)” value amounted to 0.539 nM. Under B37 stands 0.539 nM; under B38, 0.79 nM; under B39, 3.99 nM. With B40, the “apparent Kd (screen)” value is 1.05 nM.
